Test results reported in patent publication US20030108912, “Liver enriched transcription factor” (published 2003).

Biological target: T1, HNF-4 Hph I truncation (Rattus norvegicus, UniProt P22449 SEQ:1-219)
T1 chain: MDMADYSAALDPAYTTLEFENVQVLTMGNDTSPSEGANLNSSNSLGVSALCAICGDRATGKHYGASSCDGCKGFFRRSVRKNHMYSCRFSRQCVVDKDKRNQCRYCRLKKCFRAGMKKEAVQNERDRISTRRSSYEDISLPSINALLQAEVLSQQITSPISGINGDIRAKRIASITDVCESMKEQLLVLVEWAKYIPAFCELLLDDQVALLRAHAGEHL
Experiment: EMSA; zinc fingers present, dimerization region absent
Conditions: label: 32P; four-base 5' overhangs

B1: APF1 (dsDNA)
DNA 1: TCGAGCGCTGGGCAAAGGTCACCTGC
DNA 2: GCAGGTGACCTTTGCCCAGCGCTCGA
- binding result: no binding
